Drawing on the Human Domainome abundance scans (Beltran et al. 2025), this text covers abundance fitness for 35 variants.

± gives the uncertainty stated by the source.

The labels stand for the following.
B1: Storkhead-box protein 2, residues 64 to 141; numbered along this chain, Q9P2F5 (parent)
chain: SPISQSQFIPLGEILCLAISAMNSARKPVTQEALMEHLTTCFPGVPTPSQEILRHTLNTLVRERKIYPTPDGYFIVTP

The variants in the data set derive from B1. As to the kind of experiment: abundance fitness (aPCA) (normalised: wild type 0, dead -1); higher = more abundant; growth selection in yeast, the domain comes from the species named. Particulars: Homo sapiens.
Turning to CPISQSQFIPLGEILCLAISAMNSARKPVTQEALMEHLTTCFPGVPTPSQEILRHTLNTLVRERKIYPTPDGYFIVTP [S1C], the abundance fitness is -0.178 ± 0.067.
In the case of RPISQSQFIPLGEILCLAISAMNSARKPVTQEALMEHLTTCFPGVPTPSQEILRHTLNTLVRERKIYPTPDGYFIVTP [S1R], the abundance fitness is -0.344 ± 0.1.
With SPISQSQFIPLGEILCLAISAMNSARKPVTQEALMEHLTTCFPGVPTPSQEIKRHTLNTLVRERKIYPTPDGYFIVTP [L53K], the abundance fitness was -0.943 ± 0.28.
As for SPISQSQFIPLGEILCLAISAMNSARKPVTQEALMEHLTTCFPGVPTPSQEIHRHTLNTLVRERKIYPTPDGYFIVTP [L53H], the abundance fitness is -0.756 ± 0.18.
The result for SPISQSQFIPLGEILCLAISAMNSARKPVTQEALMEHLTTCFPGVPTPSQEIIRHTLNTLVRERKIYPTPDGYFIVTP [L53I] reads -0.007 ± 0.11; that for SPISQSQFIPLGEILCLAISAMNSARKPVTQEALMEHLTTCFPGVPTPSQEISRHTLNTLVRERKIYPTPDGYFIVTP [L53S], -0.586 ± 0.053.
The result for SPISQSQFIPLGEILCLAISAMNSARKPVTQEYLMEHLTTCFPGVPTPSQEILRHTLNTLVRERKIYPTPDGYFIVTP [A33Y] reads -0.167 ± 0.11; that for SPISQSQFIPLGEILCLAISAMNSARKPVTQEALMEHLTTCFPGVPTPSQEILRHTLVTLVRERKIYPTPDGYFIVTP [N58V], 0.002 ± 0.035.
To SPISQSQFIPLGEILCLAISAMNSARKPVTQEALMEHLTTCFPGVPTPSQEILRHTLWTLVRERKIYPTPDGYFIVTP [N58W] belongs -0.093 ± 0.054; to SPISQSQFIPLGEILCLAISAMNSARKPVTQEALMEHLTTCFPGVPTPSQEILRHTLHTLVRERKIYPTPDGYFIVTP [N58H], 0.017 ± 0.13; to SPISQSQFIPLGEILCLAISAMNSARKPVTQEALMEHLTTCFPGVPTPSQEILRHTLNTLVRERKIYPTPDGYFIVVP [T77V], -0.065 ± 0.046.
As for SPISQSQFIPLGEILCLAISAMNSARKPVTQEALMEHLTTCFPGVPTPSQEILRHTLNTLVRERKIYPTPDGYFIVWP [T77W], the abundance fitness is -0.111 ± 0.049.
To SPISQSQFIPLGEILCLAISAMNSARKPVTQEALMEHLTTCFLGVPTPSQEILRHTLNTLVRERKIYPTPDGYFIVTP [P43L] belongs -0.09 ± 0.055; to SPISQSQFIPLGEILCLAISAMNSARKPVTQEALMEHLTTCFEGVPTPSQEILRHTLNTLVRERKIYPTPDGYFIVTP [P43E], -0.006 ± 0.065.
The result for SPISQSQFIPLGEILCLAISAMNSARKPVTQEALIEHLTTCFPGVPTPSQEILRHTLNTLVRERKIYPTPDGYFIVTP [M35I] reads 0.044 ± 0.092.
Consider SPISQSQFIPIGEILCLAISAMNSARKPVTQEALMEHLTTCFPGVPTPSQEILRHTLNTLVRERKIYPTPDGYFIVTP [L11I], for which the abundance fitness is -0.096 ± 0.22.
As for SPISQSQFIPPGEILCLAISAMNSARKPVTQEALMEHLTTCFPGVPTPSQEILRHTLNTLVRERKIYPTPDGYFIVTP [L11P], the abundance fitness was -0.299 ± 0.074.
For SPISQSQFIPLGEILCLAISAMNSARKPVTQEALMEHLTTCFPGVPTPSQEILYHTLNTLVRERKIYPTPDGYFIVTP [R54Y], the abundance fitness was -0.117 ± 0.33.
To SPISQSQFIPLGEILCLAISAMNSARKPVTQEALMEHLTTCFPGVPTPSQEILRHTLNTLVREKKIYPTPDGYFIVTP [R64K] belongs 0.061 ± 0.11.
To SPISQSQFIPLGEILCLAISAMNSARKPVTQIALMEHLTTCFPGVPTPSQEILRHTLNTLVRERKIYPTPDGYFIVTP [E32I] belongs -0.072 ± 0.15; to SPISQSQFIPLGEILCLAISAMNSARKPVTQEALMEHLTTCFPGVPTPSQEILRHTLNTLVRERKIYPTPAGYFIVTP [D71A], -0.002 ± 0.049; to SPISQSQFIPLGEILCLAISAMNSARKPVTQEALMEHLTTCFPMVPTPSQEILRHTLNTLVRERKIYPTPDGYFIVTP [G44M], -0.024 ± 0.055.
The result for SPISQSQFIPLGEILCLAISAMNSARKPVTQEALMEHLTTCFPGVPCPSQEILRHTLNTLVRERKIYPTPDGYFIVTP [T47C] reads -0.115 ± 0.053; that for SPISQSQFIPLGEILCLAISAMNSARKPVTQEALMEHLTTCFPGVPKPSQEILRHTLNTLVRERKIYPTPDGYFIVTP [T47K], 0.021 ± 0.056.
For the variant SPISQSQFIPLGEILCLAISAMNSARKPVTQEALMEHLTTCFPGVPTPSQEILRHTLNTLVRERKIVPTPDGYFIVTP [Y67V], the abundance fitness is -0.02 ± 0.039.
The result for SPVSQSQFIPLGEILCLAISAMNSARKPVTQEALMEHLTTCFPGVPTPSQEILRHTLNTLVRERKIYPTPDGYFIVTP [I3V] reads 0.001 ± 0.034; that for SPISQSQFIPLGEILCLAISAMNSARKPVTQEALMEHLTTCFPGVPTPSQEILRHTLNALVRERKIYPTPDGYFIVTP [T59A], 0.017 ± 0.045.
To SPISQSQFIPLGEILCLAISAMNSARKPVTQEALMEHLTTCFPGVPTPSQEILRHTLNVLVRERKIYPTPDGYFIVTP [T59V] belongs 0.035 ± 0.035; to SPISQSQFIPLGEILCLAISARNSARKPVTQEALMEHLTTCFPGVPTPSQEILRHTLNTLVRERKIYPTPDGYFIVTP [M22R], -0.205 ± 0.043; to SPISQSQFIPLGEILCLAISAMNSARKPVTQEAIMEHLTTCFPGVPTPSQEILRHTLNTLVRERKIYPTPDGYFIVTP [L34I], -0.012 ± 0.12.
To SPISQSQFIPLGEILCLAISAMNSARKPVTQEALMYHLTTCFPGVPTPSQEILRHTLNTLVRERKIYPTPDGYFIVTP [E36Y] belongs -0.144 ± 0.2.
As for SPISQSQFIPLGEILCLAISAMNSARKIVTQEALMEHLTTCFPGVPTPSQEILRHTLNTLVRERKIYPTPDGYFIVTP [P28I], the abundance fitness was -0.091 ± 0.12.
The result for SPISQSQFIPLGEILCLAISAMNSARKPVTQEALMEHLTTCFPGVPTPSQELLRHTLNTLVRERKIYPTPDGYFIVTP [I52L] reads -0.05 ± 0.052; that for SPISQSQFIPLGEILCLAISAMNSARKPVTQEALMEHLTTCFPGVPTPSQEILRHTLNTLVRERKIYPTPDGYFINTP [V76N], 0.05 ± 0.078; that for SPISQSQFIPLGEILCLSISAMNSARKPVTQEALMEHLTTCFPGVPTPSQEILRHTLNTLVRERKIYPTPDGYFIVTP [A18S], -0.197 ± 0.066.
